Source: US20220275059A1 (HARBOUR ANTIBODIES, published 2022)

Target: peptide 24.end
Experiment: ELISA on coated peptide 24.end, A450 [B]

B1: 2.6h11 (antibody, V domains shown)
VH: EVQLVESGGGLVQPGRSLRLSCTASGFTFGDYVMSWFRQAPGKGLEWVGFIRSKAHGGTTEYAASVNGRFSISRDDSKTIAYLQMNSLKSEDTAVYYCTWLRNDYYYGMDVWGLGTTVTVSS
VL: DIMMTQSPLSLPVTPGEPASISCRSSQRLLHSNGYSYVDWYLQKPGQSPQLLIYLGSDRASGVPDRFSGSGSGTDFTLKISRVEAEDVGVYYCMQTLQTPWTFGQGTKVEIKR
B1: no binding.
